Assay [1] concerns the target T1, cyno CD3 (cyno, UniProt Q95LI5 22-117).
T1 sequence (looked up): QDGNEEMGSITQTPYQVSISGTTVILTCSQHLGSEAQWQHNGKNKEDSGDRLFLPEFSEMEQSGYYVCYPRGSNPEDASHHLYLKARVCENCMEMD
In words: SPR, target immobilised by amine coupling, binder as analyte. A general note: In SPR one partner is held on a chip, and binding of the other changes the refractive index at the surface.

The target in assay [2] is T2, human IL-23 receptor ECD (human, UniProt Q5VWK5 24-355).
T2 construct: extracellular domain
T2 sequence (looked up): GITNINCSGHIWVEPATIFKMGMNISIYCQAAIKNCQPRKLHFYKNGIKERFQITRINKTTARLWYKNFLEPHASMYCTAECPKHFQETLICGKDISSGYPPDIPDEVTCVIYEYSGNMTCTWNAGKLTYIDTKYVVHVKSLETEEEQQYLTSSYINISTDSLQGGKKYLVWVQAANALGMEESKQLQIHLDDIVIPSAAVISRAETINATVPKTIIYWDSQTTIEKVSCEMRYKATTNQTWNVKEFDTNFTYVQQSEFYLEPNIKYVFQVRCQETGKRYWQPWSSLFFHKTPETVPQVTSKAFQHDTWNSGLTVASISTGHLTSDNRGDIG
Described as above.

Assay [3] deals with T3, human CD3 gamma-epsilon single-chain (human, UniProt P09693 23-103; P07766 23-118).
T3 construct: Recombinant protein immobilised on the SPR chip
The description is as above.

The target of assay [4] is T4, human serum albumin (human, UniProt P02768 25-609).
T4 construct: also called HSA
The assay is described as above.

In assay [5] the target is T5, human IL23R IL12Rbeta 1 heterodimer on CHO-K1 cells (human, UniProt Q5VWK5 24-629; P42701 24-662). Briefly: cell-based or functional assay.
In assay [6] the target is T5, human IL23R IL12Rbeta 1 heterodimer on …. Briefly: cell-based or functional assay. This is another data set of the same source.

The text below walks through data of patent US20200181263A1 (NUMAB THERAPEUTICS, published 2020).

B1: PRO746 (MATCH) (other)
chain 1: DIQMTQSPSSLSASVGDRVTITCQASENIYSFLAWYQQKPGKAPKLLIYSASKLAAGVPSRFSGSGSGTDFTLTISSLQPEDFATYYCQQTNRYSNPDIYNVFGTGTKVTVLGGGGGSGGGGSGGGGSGGGGSEVQLVESGGGLVQPGGSLRLSCAASGIDFNSNYYMCWVRQAPGKGLEWIGCIYVGSHVNTYYANWAKGRFTISRDNSKNTVYLQMNSLRAEDTAVYYCATSGSSVLYFKFWGQGTLVTVSSGGGGSGGGGSDIQMTQSPSSLSASVGDRVTITCQSSQSVFSNNYLAWFQQKPGQSPKRLIYSASTLASGVPSRFSGSGSGTDFTLTISSLQPEDFATYYCLGSYACSSADCYVFGCGTKVTVLGEPEPEPEPEPEPEPDIQMTQSPSSLSASVGDRVTITCQSSESVYSNNQLSWYQQKPGQPPKLLIYDASDLASGVPSRFSGSGSGTDFTLTISSLQPEDFATYYCAGGFSSSSDTAFGGGTKLTVLG
chain 2: DIQMTQSPSSLSASVGDRVTITCQASENIYSFLAWYQQKPGKAPKLLIYSASKLAAGVPSRFSGSGSGTDFTLTISSLQPEDFATYYCQQTNRYSNPDIYNVFGTGTKVTVLGGGGGSGGGGSGGGGSGGGGSEVQLVESGGGLVQPGGSLRLSCAASGIDFNSNYYMCWVRQAPGKGLEWIGCIYVGSHVNTYYANWAKGRFTISRDNSKNTVYLQMNSLRAEDTAVYYCATSGSSVLYFKFWGQGTLVTVSSGGGGSGGGGSEVQLVESGGGLVQPGGSLRLSCAASGFSLSSNAMGWVRQAPGKGLEYIGIISVGGFTYYASWAKGRFTISRDNSKNTVYLQMNSLRAEDTATYFCARDRHGGDSSGAFYLWGQGTLVTVSSKPKPKPKPKPKPKPEVQLVESGGGLVQPGGSLRLSCAASGFSLSSYDMSWVRQAPGKCLAWIGASYASGPTYYASWAKGRFTISRDNSKNTVYLQMNSLRAEDTATYFCARGGWTGTSHSNIWGQGTLVTVSS
notes: Hetero-dimeric MATCH, anti-parallel, two anti-IL23R scFv modules on a CD3/HSA core; interchain disulfide in the anti-CD3 VL/VH interface; charged core linkers; also called MATCH-4 anti-TAA2xCD3xHSA; heterodimeric MATCH
For the molecule B1, the Kd (as a rule, the concentration at which binding is half-saturated) was determined as 3.19 nM in assay [1], 0.0249 nM in assay [2], 3.52 nM in assay [3] and 0.141 nM in assay [4]. Moreover, in assay [5], the “EC50 of T-cell activation (NFAT reporter, with HSA), 5 h” value was 266000 nM. In assay [5], the “EC50 of T-cell activation (NFAT reporter, with HSA), 30 h” value is 102000 nM. The “NFAT assay EC50 (T-cell activation, 5 h)” value in assay [6] turned out to be 0.19 nM.

B2: PRO734 (other)
chain 1: DIQMTQSPSSLSASVGDRVTITCQASENIYSFLAWYQQKPGKAPKLLIYSASKLAAGVPSRFSGSGSGTDFTLTISSLQPEDFATYYCQQTNRYSNPDIYNVFGTGTKVTVLGGGGGSGGGGSGGGGSGGGGSEVQLVESGGGLVQPGGSLRLSCAASGIDFNSNYYMCWVRQAPGKGLEWIGCIYVGSHVNTYYANWAKGRFTISRDNSKNTVYLQMNSLRAEDTAVYYCATSGSSVLYFKFWGQGTLVTVSSGGGGSGGGGSDIQMTQSPSSLSASVGDRVTITCQSSQSVFSNNYLAWFQQKPGQSPKRLIYSASTLASGVPSRFSGSGSGTDFTLTISSLQPEDFATYYCLGSYACSSADCYVFGCGTKVTVLGSGGGGSGGGGSDIQMTQSPSSLSASVGDRVTITCQSSESVYSNNQLSWYQQKPGQPPKLLIYDASDLASGVPSRFSGSGSGTDFTLTISSLQPEDFATYYCAGGFSSSSDTAFGGGTKLTVLG
chain 2: DIQMTQSPSSLSASVGDRVTITCQASENIYSFLAWYQQKPGKAPKLLIYSASKLAAGVPSRFSGSGSGTDFTLTISSLQPEDFATYYCQQTNRYSNPDIYNVFGTGTKVTVLGGGGGSGGGGSGGGGSGGGGSEVQLVESGGGLVQPGGSLRLSCAASGIDFNSNYYMCWVRQAPGKGLEWIGCIYVGSHVNTYYANWAKGRFTISRDNSKNTVYLQMNSLRAEDTAVYYCATSGSSVLYFKFWGQGTLVTVSSGGGGSGGGGSEVQLVESGGGLVQPGGSLRLSCAASGFSLSSNAMGWVRQAPGKGLEYIGIISVGGFTYYASWAKGRFTISRDNSKNTVYLQMNSLRAEDTATYFCARDRHGGDSSGAFYLWGQGTLVTVSSSGGGGSGGGGSEVQLVESGGGLVQPGGSLRLSCAASGFSLSSYDMSWVRQAPGKCLAWIGASYASGPTYYASWAKGRFTISRDNSKNTVYLQMNSLRAEDTATYFCARGGWTGTSHSNIWGQGTLVTVSS
notes: Hetero-dimeric MATCH, anti-parallel; diS in anti-CD3 domain, 11 aa GS-linker
As for B2, the Kd in assay [1] was 10.2 nM; in assay [2], 0.036 nM; in assay [3], 11.9 nM; in assay [4] it was 0.482 nM. The “NFAT assay EC50 (T-cell activation, 5 h)” value in assay [6] came out at 46.8 nM.

B3: PRO738 (other)
chain 1: DIQMTQSPSSLSASVGDRVTITCQASENIYSFLAWYQQKPGKAPKLLIYSASKLAAGVPSRFSGSGSGTDFTLTISSLQPEDFATYYCQQTNRYSNPDIYNVFGTGTKVTVLGGGGGSGGGGSGGGGSGGGGSEVQLVESGGGLVQPGGSLRLSCAASGIDFNSNYYMCWVRQAPGKGLEWIGCIYVGSHVNTYYANWAKGRFTISRDNSKNTVYLQMNSLRAEDTAVYYCATSGSSVLYFKFWGQGTLVTVSSGGGGSGGGGSDIQMTQSPSSLSASVGDRVTITCQSSQSVFSNNYLAWFQQKPGQSPKRLIYSASTLASGVPSRFSGSGSGTDFTLTISSLQPEDFATYYCLGSYACSSADCYVFGCGTKVTVLGGGGGSGGGGSGGGGSDIQMTQSPSSLSASVGDRVTITCQSSESVYSNNQLSWYQQKPGQPPKLLIYDASDLASGVPSRFSGSGSGTDFTLTISSLQPEDFATYYCAGGFSSSSDTAFGGGTKLTVLG
chain 2: DIQMTQSPSSLSASVGDRVTITCQASENIYSFLAWYQQKPGKAPKLLIYSASKLAAGVPSRFSGSGSGTDFTLTISSLQPEDFATYYCQQTNRYSNPDIYNVFGTGTKVTVLGGGGGSGGGGSGGGGSGGGGSEVQLVESGGGLVQPGGSLRLSCAASGIDFNSNYYMCWVRQAPGKGLEWIGCIYVGSHVNTYYANWAKGRFTISRDNSKNTVYLQMNSLRAEDTAVYYCATSGSSVLYFKFWGQGTLVTVSSGGGGSGGGGSEVQLVESGGGLVQPGGSLRLSCAASGFSLSSNAMGWVRQAPGKGLEYIGIISVGGFTYYASWAKGRFTISRDNSKNTVYLQMNSLRAEDTATYFCARDRHGGDSSGAFYLWGQGTLVTVSSGGGGSGGGGSGGGGSEVQLVESGGGLVQPGGSLRLSCAASGFSLSSYDMSWVRQAPGKCLAWIGASYASGPTYYASWAKGRFTISRDNSKNTVYLQMNSLRAEDTATYFCARGGWTGTSHSNIWGQGTLVTVSS
notes: Hetero-dimeric MATCH, anti-parallel; diS in anti-CD3 domain, 15 aa GS-linker
For the molecule B3, the Kd was determined as 8.48 nM in assay [1], 0.0337 nM in assay [2], 10.1 nM in assay [3] and 0.303 nM in assay [4]. In addition, the “NFAT assay EC50 (T-cell activation, 5 h)” value in assay [6] stood at 0.423 nM.
